T1: Notch1 antigen protein (amino acids 1-220 of human Notch1 with human Fc-tag or histidine-tag) (human, UniProt P46531 19-220)
T1 construct: range 19-220; Made in insect cells with baculovirus; also called Notch1 antigen corresponding to EGF repeats 1-5; not shown: C-terminal human Fc-tag or histidine-tag
T1 sequence (looked up): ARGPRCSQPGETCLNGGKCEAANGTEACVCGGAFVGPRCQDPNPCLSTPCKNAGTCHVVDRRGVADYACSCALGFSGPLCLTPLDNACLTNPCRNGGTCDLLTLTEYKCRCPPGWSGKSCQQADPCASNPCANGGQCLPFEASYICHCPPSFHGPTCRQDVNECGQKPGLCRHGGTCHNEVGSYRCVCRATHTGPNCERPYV


Columns and labels:
[1] = molecular target: Notch1 antigen protein (amino acids 1-220 of human Notch1 with human Fc-tag or histidine-tag) (human) (UniProt P46531); experiment: Biacore, binding to Notch1 antigen
[2] = molecular target: T1, Notch1 antigen protein (amino acids …); experiment: Biacore, binding to Notch1 antigen
Excerpt: The two best humanized 13M57 antibodies (13M57H5 L6 and 13M57H5 L21) were then further characterized. The humanized 13M57 antibodies were purified using protein A chromatography.

[3] = molecular target: T1, Notch1 antigen protein (amino acids …); experiment: ELISA of HEK 293 conditioned media on Notch1 antigen; heavy chain cotransfected with the murine 13M57 light chain
Method: The functionality of each candidate variant humanized heavy and light chain was tested by cotransfection into mammalian cells. Each of the eleven candidate humanized 13M57 heavy chains described above was cotransfected with the murine 13M57 light chain cDNA into HEK 293 cells, and conditioned media was then assayed for Notch1 antigen binding activity by ELISA. […] This variant—“13M57H5”—contained, in additional to murine CDRs, murine residues at five framework positions, Kabat positions 44, 46, 49, 89, and 93 (FIG. 3). The 13M57H5 humanized heavy chain was then cotransfected with each of the eleven candidate humanized light chains into HEK293 cells, and conditioned media was again assayed for antigen binding by ELISA. […] To evaluate the importance of the individual murine residues in 13M57 L5 and 13M57 L6, a farther series of candidate variant light chains were synthesized that combined one or more of the murine residues at Kabat positions 42-45 and 89-90. These candidate variant light chains were then tested as described above.

Row | Kd [2] [nM] | Binder | other results
1 | – | murine monoclonal antibody 13M57 (antibody, from another filing, V domains shown) VH: EVNLVESGGDLVQPGGSLRLSCAASGFTFSSYTMSWVRQTPEKRLEWVAYIDYGGDFTSYSDAIRGRFTISRDNAKNTLYLQMSSLKSEDTAIYYCSRRRYDAMDYWGQGTSVIVSS VL: DIQMTQSTSSLSASLGDRVTVSCSASQAISNYLNWYQQKPDGTLKLLIYYTTNLHSGVPSRFSGSGSGTDYSLTISNLEPEDIATYYCQQYSKFPWTFGGGTKLEIKR | Kd [1]: 0.05 nM
2 | ~0.08 | humanized 13M57H5L6 antibody (antibody, human IgG2, V domains shown, Variant heavy chains were fused in-frame to the human IgG2 constant region; also called 13M57 L6H5; humanized L6H5 13M57) VH: EVQLVESGGGLVQPGGSLRLSCAASGFTFSSYTMSWVRQAPGKRLEWVAYIDYGGDFTSYSDAIRGRFTISRDNAKNTLYLQMNSLRAEDTAIYYCSRRRYDAMDYWGQGTLVTVSS VL: DIQMTQSPSSLSASVGDRVTITCSASQAISNYLNWYQQKPGKAPKLLIYYTTNLHSGVPSRFSGSGSGTDYSFTISSLQPEDIATYYCQQYSKFPWTFGGGTKVEIKR | –
3 | – | 13M57H5 humanized heavy chain cotransfected with the murine 13M57 light chain (antibody, human IgG2, V domains shown, Heavy chain fused to the human IgG2 constant region; tested as conditioned medium from HEK 293 cells) VH: EVQLVESGGGLVQPGGSLRLSCAASGFTFSSYTMSWVRQAPGKRLEWVAYIDYGGDFTSYSDAIRGRFTISRDNAKNTLYLQMNSLRAEDTAIYYCSRRRYDAMDYWGQGTLVTVSS VL: DIQMTQSTSSLSASLGDRVTVSCSASQAISNYLNWYQQKPDGTLKLLIYYTTNLHSGVPSRFSGSGSGTDYSLTISNLEPEDIATYYCQQYSKFPWTFGGGTKLEIK | binding result [3]: binds
4 | ~0.1 | humanized 13M57H5L21 antibody (antibody, human IgG2, V domains shown, Human IgG2 heavy chain constant region; also called 13M57 L21H5; ATCC PTA-8424) VH: EVQLVESGGGLVQPGGSLRLSCAASGFTFSSYTMSWVRQAPGKRLEWVAYIDYGGDFTSYSDAIRGRFTISRDNAKNTLYLQMNSLRAEDTAIYYCSRRRYDAMDYWGQGTLVTVSS VL: DIQMTQSPSSLSASVGDRVTITCSASQAISNYLNWYQQKPDGTLKLLIYYTTNLHSGVPSRFSGSGSGTDYSFTISSLQPEDIATYYCQQYSKFPWTFGGGTKVEIKR | –
